Measurements taken from the RNAGym collection of RNA variant scans (doi:10.7554/elife.80360).

B1: Hammerhead Ribozyme (parent)
chain: ACCGGAUGUGCUUUCCGGUCUGAUGAGUCCGUGAGGACGAAACAG

Variants of: B1
Test: self-cleavage, relative activity (ratio to wild type); higher = more cleavage; co-transcriptional

Point of comparison: U19A U28A, self-cleavage 0.368. Against it:
- C16A A23G — lower, 0.357
- A1C G8U — higher, 0.465
- C30U A40C — higher, 0.514
- U14A G17A — higher, 0.586
- U12A G35A — higher, 0.724
- G27C A44C — higher, 0.38
- G5A G17A — higher, 0.397
- C30A A44C — lower, 0.317
- U12A U21C — higher, 0.517
- G22C — lower, 0.336
- U28C A44U — higher, 0.599
- U14C G22U — lower, 0.33
- C20U G25A — higher, 0.756
- G25U G33U — lower, 0.325
- C2U U24A — higher, 1.05
- A1G U12A — higher, 1.63
- C11A G22C — lower, 0.35
- C2A C29G — higher, 0.378
- G17A U28A — higher, 0.42
- C3A G8U — higher, 0.902
- U12C — higher, 1.05
- G8A C43U — higher, 0.381
- G10C A23C — higher, 0.538
- G33C A44C — higher, 0.533
- U21A G35C — higher, 0.492
- G8A G10A — higher, 1.16
- G5C G31C — higher, 0.613
- A1G G18A — higher, 0.906
- G27U A42U — lower, 0.315
- A6C C16U — higher, 0.689
- G4U C29U — higher, 0.413
- G25C U28A — lower, 0.338
- A41U G45A — higher, 0.401
- U7A U19C — higher, 0.402
- U19C A41U — lower, 0.271
- G4A U9G — higher, 0.423
- U24G A34G — higher, 0.902
- C3A U19C — lower, 0.277
- A26U U28C — higher, 0.646
- U28C A41C — lower, 0.29
- A26G G45C — higher, 0.389
- A41U — higher, 0.393
- C29G C43G — lower, 0.275
- U21G A37C — higher, 0.427
- G5C U9C — higher, 0.63
- G25C A37C — lower, 0.285
- G22C A44U — lower, 0.323
- G27C G35C — higher, 0.394
- A44G — higher, 1.53
- C3G U14G — higher, 0.557
- C11A A34U — higher, 0.771
- U9A G17A — higher, 0.539
- C20A A42C — lower, 0.335
- G8A U21C — higher, 0.742
- A6U G17U — higher, 0.465
- C11U A37C — higher, 0.987
- G18A U19G — lower, 0.359
- A6G — higher, 0.806
- G8U C20G — higher, 0.392
- U19A A26U — lower, 0.255
- C15U G17A — higher, 0.556
- G27U G39U — lower, 0.297
- C11G G33C — higher, 1
- C2U U14G — higher, 1.11
- G8A G27U — higher, 0.451
- G5C U24G — higher, 0.499
- G31C C38G — higher, 0.488
- A26C A34U — lower, 0.344
- G4C C38U — higher, 0.643
- G8C G33C — higher, 0.867
- U9G A26U — lower, 0.344
- C29G G39A — lower, 0.324
- C3U U7A — higher, 1.26
- U14G C20G — lower, 0.297
- C11A C29G — higher, 0.809
- U19G A42G — lower, 0.317
- C2U C11G — higher, 1.5
- C20U A42U — lower, 0.322
- C30G A37U — lower, 0.358
- A26G A37U — lower, 0.352
- U14A C29A — higher, 0.608
- G18C G36C — lower, 0.352
- G4A C38A — higher, 0.373
